Reference: patent US20140235701, “NGF APTAMER AND APPLICATION THEREOF” (RIBOMIC INC., published 2014)

Columns and labels:
Details in all cases: tags: R&D Systems; chain copies: 2
[1] = biological target: T1, NGF (nerve growth factor) (Homo sapiens, UniProt P01138 P01138:122-241); assay: SPR; binding maintained on shortening
[2] = biological target: T1, NGF (nerve growth factor); assay: SPR; neurite inhibition at 10 nM; no TF-1 inhibition
Experimental: (§1) The cells (2500 cells per well) were cultured for one day in an RPMI-1640 medium containing 2.5% horse serum and 1.25% fetal bovine serum in a 96 well flat-bottom plate coated with collagen type IV. […] Two days later, the cytoplasm and nuclei were stained using Cellomics Neurite Outgrowth Kit (manufactured by Thermo Scientific), and neurite length per cell was measured by Cellomics ArrayScan VTI (manufactured by Thermo Scientific). With the neurite length per cell obtained by the addition of NGF alone as inhibitory activity 0%, and that of the cell obtained by NGF free culture for 2 days as inhibitory activity 100%, the inhibitory activity of the aptamer was calculated from the neurite length per cell obtained by culturing with the addition of NGF and the aptamer in mixture.
Two NGF receptor (human TrkA and human p75) genes were introduced into TF-1 cells (ATCC Number: CRL-2003), which is a human erythroleukemic cell line, by using a retrovirus vector to give cells that highly express two receptors simultaneously and stably. The cells were suspended in an RPMI-1640 medium containing 20% fetal bovine serum, and seeded in a white 96 well flat-bottom plate at 1000 cells (50 μL) per well. […]

NT-4 (neurotrophin-4) [3] = biological target: T2, NT-4 (neurotrophin-4) (Homo sapiens, UniProt P34130 P34130:81-210); assay: cell_activity; TF-1 TrkB cells
T2 sequence: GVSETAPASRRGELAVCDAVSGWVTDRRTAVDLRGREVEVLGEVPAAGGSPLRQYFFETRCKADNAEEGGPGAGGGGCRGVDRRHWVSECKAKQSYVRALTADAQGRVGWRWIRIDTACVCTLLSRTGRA
From the text: Using TF-1 cells, whether NGF aptamer inhibits BDNF, NT-3, NT-4 was examined. Human receptor genes (TrkB, TrkC, p75) for respective neurotrophic factors were introduced into TF-1 cells (ATCC Number: CRL-2003), which is a human erythroleukemic cell line, by using a retrovirus vector to give cells that highly express these receptors stably. TF-1 cells introduced with TrkB and p75 were used for the evaluation of inhibitory activity against BDNF, TF-1 cells introduced with TrkC and p75 were used for the evaluation against NT-3, and TF-1 cells introduced with TrkB alone were used for the evaluation against NT-4. These cells were suspended in an RPMI-1640 medium containing 20% fetal bovine serum, and seeded in a white 96 well flat-bottom plate at 1000 cells (50 μL) per well. Thereto was added a mixed solution 50 μL of human BDNF (final concentration 0.074 nM) or NT-3 (final concentration 0.074 nM) or NT-4 (final concentration 0.071 nM) and the aptamer (final concentration 1 μM-0.01 nM), which had been pre-reacted at room temperature for 30 min in a serum-free RPMI-1640 medium, 3 days later, 100 μL of CellTiter-Glo reagent for CellTiter-Glo Luminescent Cell Viability Assay (manufactured by Promega) was added to each well, chemiluminescence was measured by a microplate reader. With the amount of luminescence per well obtained by the addition of BDNF or NT-3 or NT-4 alone and culture of the cells for 3 days as inhibitory activity 0%, and that of the well obtained by culture for 3 days without addition of BDNF or NT-3 or NT-4 as inhibitory activity 100%, the inhibitory activity of the aptamer was calculated from the amount of luminescence per well obtained by culturing with the addition of BDNF or NT-3 or NT-4 and the aptamer in mixture. […] The 50% inhibitory concentration (IC₅₀) was determined from the concentrations at two, above and below points sandwiching the 50% inhibitory activity. An IC₅₀ value indicated as “>X” means that the inhibitory activity was not more than 50% when the indicated concentration X was the maximum measured concentration. N.D. means not measured.

[4] = biological target: T1, NGF (nerve growth factor); assay: cell_activity; TF-1 cell proliferation inhibition
Experimental: (§2) Two NGF receptor (human TrkA and human p75) genes were introduced into TF-1 cells (ATCC Number: CRL-2003), which is a human erythroleukemic cell line, by using a retrovirus vector to give cells that highly express two receptors simultaneously and stably. The cells were suspended in an RPMI-1640 medium containing 20% fetal bovine serum, and seeded in a white 96 well flat-bottom plate at 1000 cells (50 μL) per well. […] With the amount of luminescence per well obtained by the addition of NGF alone and culture of the cells for 3 days as inhibitory activity 0%, and that of the well obtained by NGF free culture for 3 days as inhibitory activity 100%, the inhibitory activity of the aptamer was calculated from the amount of luminescence per well obtained by culturing with the addition of NGF and the aptamer in mixture.

NT-3 (neurotrophin-3) [5] = biological target: T3, NT-3 (neurotrophin-3) (Homo sapiens, UniProt P20783 P20783:139-257); assay: cell_activity; TF-1 TrkC/p75 cells
T3 sequence: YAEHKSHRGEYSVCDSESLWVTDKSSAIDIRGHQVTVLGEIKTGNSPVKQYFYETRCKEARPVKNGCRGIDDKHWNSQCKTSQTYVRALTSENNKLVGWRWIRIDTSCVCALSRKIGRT
From the text: Using TF-1 cells, whether NGF aptamer inhibits BDNF, NT-3, NT-4 was examined. Human receptor genes (TrkB, TrkC, p75) for respective neurotrophic factors were introduced into TF-1 cells (ATCC Number: CRL-2003), which is a human erythroleukemic cell line, by using a retrovirus vector to give cells that highly express these receptors stably. TF-1 cells introduced with TrkB and p75 were used for the evaluation of inhibitory activity against BDNF, TF-1 cells introduced with TrkC and p75 were used for the evaluation against NT-3, and TF-1 cells introduced with TrkB alone were used for the evaluation against NT-4. These cells were suspended in an RPMI-1640 medium containing 20% fetal bovine serum, and seeded in a white 96 well flat-bottom plate at 1000 cells (50 μL) per well. Thereto was added a mixed solution 50 μL of human BDNF (final concentration 0.074 nM) or NT-3 (final concentration 0.074 nM) or NT-4 (final concentration 0.071 nM) and the aptamer (final concentration 1 μM-0.01 nM), which had been pre-reacted at room temperature for 30 min in a serum-free RPMI-1640 medium, 3 days later, 100 μL of CellTiter-Glo reagent for CellTiter-Glo Luminescent Cell Viability Assay (manufactured by Promega) was added to each well, chemiluminescence was measured by a microplate reader. With the amount of luminescence per well obtained by the addition of BDNF or NT-3 or NT-4 alone and culture of the cells for 3 days as inhibitory activity 0%, and that of the well obtained by culture for 3 days without addition of BDNF or NT-3 or NT-4 as inhibitory activity 100%, the inhibitory activity of the aptamer was calculated from the amount of luminescence per well obtained by culturing with the addition of BDNF or NT-3 or NT-4 and the aptamer in mixture. When the inhibitory activity was 0 or below, ‘0%’ is indicated. The 50% inhibitory concentration (IC₅₀) was determined from the concentrations at two, above and below points sandwiching the 50% inhibitory activity. An IC₅₀ value indicated as “>X” means that the inhibitory activity was not more than 50% when the indicated concentration X was the maximum measured concentration. N.D. means not measured.

[6] = biological target: T1, NGF (nerve growth factor); assay: cell_activity; neurite; TF-1 0.034
NT-3 (neurotrophin-3) [7] = biological target: T3, NT-3 (neurotrophin-3); assay: cell_activity; TF-1
NT-4 (neurotrophin-4) [8] = biological target: T2, NT-4 (neurotrophin-4); assay: cell_activity; TF-1
[9] = biological target: T1, NGF (nerve growth factor); assay: cell_activity; neurite; TF-1 0.085
[10] = biological target: T1, NGF (nerve growth factor); assay: cell_activity; neurite outgrowth inhibition
Experimental: as §1

[11] = biological target: T1, NGF (nerve growth factor); assay: cell_activity; neurite; TF-1 <0.03
[12] = biological target: T1, NGF (nerve growth factor); assay: cell_activity; neurite; TF-1 0.084
Experimental: With the neurite length per cell obtained by the addition of NGF alone as inhibitory activity 0%, and that of the cell obtained by NGF free culture for 2 days as inhibitory activity 100%, the inhibitory activity of the aptamer was calculated from the neurite length per cell obtained by culturing with the addition of NGF and the aptamer in mixture.
as §2

T1 sequence (P01138 122-241, one chain of several): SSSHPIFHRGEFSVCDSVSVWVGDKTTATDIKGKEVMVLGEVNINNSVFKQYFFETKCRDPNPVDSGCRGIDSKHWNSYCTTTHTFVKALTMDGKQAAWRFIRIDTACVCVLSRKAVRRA

GGGUCCUGACCAAGAGUUUCCGUCUCGUGGUCUGUACCC (ssRNA, 2'-F C and U; 2'-OH G; 2'-H (deoxy) A) [SEQ ID NO: 92]: binds [1].

B1: SEQ ID NO: 99 (ssRNA)
RNA: GGGAGAACUUCGACCAGAAGUCCAAACGGGACUUUAUACCUCUGAGUCGCCUUUGCUCCUAUGUGCGCAUACAUGGAUCCUC
modifications: 2'-F C/U, dA, 2'-OH G
B1: binds [2].

B2: SEQ ID NO: 82(16) (ssRNA)
RNA: GGGUCCUGGAUAAGAGUUUCCGUCUCGUAUCCUGUUACCC
modifications: 2'-F C and U except C38; 2'-OMe G1-3,G9,G14,G16,G22,G27,C38; 2'-OH G8,G34; 2'-H A; idT 5' and 3'
Binder B2 has an IC50 (NT-4 (neurotrophin-4) [3]) of less than 3000 pM, an IC50 [4] of 26 pM and an IC50 (NT-3 (neurotrophin-3) [5]) of 34400 pM.

GGGUCCUGGAUAAGAGUUUCCGUCUCGUAUCCUGUUACCC (ssRNA, as 82(1) except 2'-OMe C21) [SEQ ID NO: 82(6)] gave an IC50 [6] of 128 pM, an IC50 (NT-3 (neurotrophin-3) [7]) of less than 30000 pM and an IC50 (NT-4 (neurotrophin-4) [8]) of less than 3000 pM.

GGGUCCUGGAUAAGAGTUUCCGUCUCGUAUCCUGUUACCC (ssRNA, as 82(1) except dT17) [SEQ ID NO: 156] was tested, and the IC50 [9] was less than 100 pM, the IC50 (NT-3 (neurotrophin-3) [7]) was less than 30000 pM and the IC50 (NT-4 (neurotrophin-4) [8]) was less than 3000 pM.

B3: SEQ ID NO: 82(25) (ssRNA)
RNA: B2 RNA
modifications: 2'-F C5,U7,U17,U18,U19,C20,C24,U25,U33,U36; 2'-OH G8,G34; 2'-H A; 2'-OMe all other; idT 5' and 3'
For B3, the IC50 (NT-4 (neurotrophin-4) [3]) was 40400 pM, the IC50 [4] was 85 pM and the IC50 [10] was less than 100 pM. For the same binder, the IC50 (NT-3 (neurotrophin-3) [5]) was 2150 pM.

Binder GGGUCCUGGUUAAGAGUUUCCGUCUCGUAACCUGUUACCC (ssRNA, 2'-OMe G (G8,G34 2'-OH), dA, 2'-F C/U; 5',3' idT) [SEQ ID NO: 79(1)] has an IC50 [11] of 289 pM.

GGGUCCUGGAUAAGAGUUUCCGUCUCGUAUCCUGUUACCC (ssRNA, as 82(1) except 2'-OMe U4,C6,U11,C21,U23,U28,U30,C31,C32,U35,C38-40) [SEQ ID NO: 82(24)] gave an IC50 [12] of less than 100 pM and an IC50 (NT-3 (neurotrophin-3) [7]) of less than 30000 pM.

GGGUCCUGGAUAAGAGUUUCCGUCUCGUAUCCUGUUACCC (ssRNA, as 82(1) except 2'-OMe U4,C6,U11,C21,U23,U28,U30,C32,U35,C38-40) [SEQ ID NO: 82(21)] gave an IC50 [9] of less than 100 pM and an IC50 (NT-3 (neurotrophin-3) [7]) of less than 30000 pM.

GGGUCCUGCCUAAGAGUUUCCGUCUCGUAGGCUGUUACCC (ssRNA, 2'-F C and U; 2'-OH G; 2'-H (deoxy) A) [SEQ ID NO: 91]: binds [1].

B4: SEQ ID NO: 82(55) (ssRNA)
RNA: B2 RNA
modifications: 2'-F C5,U7,U17,U18,U19,C20,C24,U25,U33,U36; 2'-OH G8,G34; 2'-H A; 2'-OMe all other; 5' PEG80TS4; 3' idT
B4 showed an IC50 [4] of 39 pM, an IC50 [10] of 101 pM and an IC50 (NT-3 (neurotrophin-3) [5]) of 970 pM.

Work on GGGUCCUGGAUAAGAGUUUCCGUCUCGUAUCCUGUUACCC (ssRNA, as 82(1) except 2'-OMe U4,C6,U11,C21,U23,C26,U30,C31,C32,U35,C38-40) [SEQ ID NO: 82(23)] yielded an IC50 [12] of less than 100 pM and an IC50 (NT-3 (neurotrophin-3) [7]) of less than 30000 pM.

B5: SEQ ID NO: 82(2) (ssRNA)
RNA: B2 RNA
modifications: 2'-F C and U except U4; 2'-OMe G1-3,U4,G9,G14,G16,G22,G27; 2'-OH G8,G34; 2'-H A; idT 5' and 3'
With B5 the IC50 (NT-4 (neurotrophin-4) [3]) was less than 3000 pM, the IC50 [4] was 41 pM and the IC50 (NT-3 (neurotrophin-3) [5]) was 40600 pM.
